In patent US20170320965A1, “PAN-REACTIVE ANTIBODIES TO DUOCARMYCINS” (SYNTHON BIOPHARMACEUTICALS B.V., priority 2014, published 2017):

B1: A-15-5-4: monoclonal, pan-reactive anti-duocarmycin antibody derived from hapten A; VH/VL SEQ ID NO:1 and 2 (antibody, listed as Mus musculus, V domains shown)
VH: QVQLQQPGAELVKPGASVKLPCKASGYTFISYYMYWVKQRPGQGLEWIGVINPSNGGTTFNEKFKNKATLTVDKSSSTAYLQLSSLTSEDSAVYYCTCLNYYGSSYWYFDVWGAGTTVTVSS
VL: DVVMTQTPLSLPVSLGDQASIFCRSSQSLVHSDGNTYLHWYLQKPGQSPKLLIYTVSNRFSGVPDRFSGSGSGTDFTLKISRVEAEDLGVYFCSQSTHVPWTFGGGTTLEIK
B2: B-6-2-10: monoclonal, pan-reactive anti-duocarmycin antibody derived from hapten B; VH/VL SEQ ID NO:3 and 4 (antibody, listed as Mus musculus, V domains shown)
VH: DVKLVESGGGLVKPGGSLKLSCAASGFTFRTYTMSWVRQTPEKRLEWVATISSGGSYTYYPDSMKGRFTISRDNAKNTLYLQMSSLKSEDTAMYYCTRGPFYDVYYFLFAYWGQGTLVTVSA
VL: QAVVTQESALTTSPGETVTLTCRSSIGAVTTTNYANWVQEKPDHLFTGLIGGTNNRAPGVPARFSGSLIGDKAALTITGAQTEDEAIYFCALWYSNHWVFGGGTKLTVL
B3: C-16-1-7: monoclonal, pan-reactive anti-duocarmycin antibody derived from hapten C; VH/VL SEQ ID NO:5 and 6 (antibody, listed as Mus musculus, V domains shown)
VH: EVKLVESGGGLVKPGGSLKVSCAASGFTFSSYAMSWVRQIPDKRLEWVASISTGGITYYLDGVKGRFTISRDNARNILYLQMSSLRSEDTAIYYCARWSYAMDYWGQGTSVTVSS
VL: QIVLTQSPAIMSASLGERVTMTCTASSSVSSSYLHWYQQKPGSSPKVWIYSTSNLASGVPARFRGSGSGTSYSLTISSMEAEDAATYYCHQYHRSPPTFGGGTKLEIK

What follows are molecules tested on panel of 18 different duocarmycin-containing antibody-drug conjugates having a common DNA alkylating moiety (assay: BIA (Biomolecular Interaction Analysis) assay, surface plasmon resonance, second screening for pan-reactive antibodies). Settings: anti-hapten mAb captured on polyclonal anti-mouse surface; ADCs 1 to 18 of FIG. 2 injected sequentially, approx. 20 μg/mL, 25° C.
Type: binding
Source text: The samples of the supernatant culture fluid are screened with a suitable assay for the selection of pan-reactive antibodies reactive to the antigen. Suitable immunoassays are well known and may be readily determined by the person skilled in the art. A preferred immuno-assay is the Biomolecular Interaction Analysis (BIA) assay in which the sensor chip surface is modified by immobilization of polyclonal anti-mouse which results in a surface that can bind any mouse monoclonal antibodies.
In a specific embodiment of the present invention, the BIA assay is performed using an anti-hapten A, B or C monoclonal antibody captured on a polyclonal anti-mouse surface to a high binding level (capture reagent). Subsequently, a panel of duocarmycin-containing antibody-drug conjugates is injected sequentially and the signal (RU, resonance or responsive units) indicating binding is recorded. The panel of duocarmycin derivatives contain the same DNA alkylating moiety as a common structural moiety (as shown hereinabove), but have a different DNA binding moiety, and/or linker, and/or antibody. Monoclonal, pan-reactive antibodies are selected based on surface plasmon resonance (SPR), which response is directly proportional to the mass increase on the surface. An increase in mass on the surface is a positive binding reaction. Those antibodies binding to at least 3, preferably at least 5, more preferably at least 10, even more preferably at least 15, most preferably at least 18 different duocarmycin-containing antibody-drug conjugates having the same DNA alkylating moiety described hereinabove, are selected as pan-reactive antibodies in accordance with the present invention.
The BIA (Biomolecular Interaction Analysis) assay was used for the selection of monoclonal, pan-reactive antibodies. One flow cell on a CMS sensor chip was immobilized by amine coupling with polyclonal anti-mouse to a level of approx. 16,000 RU. […]
For B1, the “binding to a panel of 18 different duocarmycin-containing antibody-drug conjugates” value was “show binding”. With B2 the “binding to a panel of 18 different duocarmycin-containing antibody-drug conjugates” value was “show binding”. For B3, the “binding to a panel of 18 different duocarmycin-containing antibody-drug conjugates” value was “show binding”.
